This note sets out measurements from patent publication US20250145711A1 (Janssen / Centocor, published 2025).

Experiment [1] has as its target T1, Human CD3 epsilon (CD3ε), on primary human pan T cells (human, UniProt P07766 23-207). Put plainly: cell-based or functional assay.
In experiment [2] the target is T1, Human CD3 epsilon (CD3ε), on primary …. Put plainly: flow cytometry on human T cells, anti-human IgG Fc A647 detection. The essentials: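 Cryopreserved primary human pan T cells (50,000/well) incubated 1 hr at 37 °C with serially diluted bispecific antibodies; bound antibody detected with A647 anti-human IgG Fc (2 ug/mL, 30 min on ice). Read by iQue flow cytometry, gated on singlets and SYTOX green-negative live cells; secondary-alone wells as background.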
In general terms: In flow cytometry, cells or beads pass a laser one at a time.

For experiment [3] the target is unchanged. Nature of the experiment: cell-based or functional assay. This is another data set of the same source.

Where a chain is given by its changes, count along the chain named. Names and notes keep the numbering of the source.

T1 sequence (P07766 23-207 limits assumed): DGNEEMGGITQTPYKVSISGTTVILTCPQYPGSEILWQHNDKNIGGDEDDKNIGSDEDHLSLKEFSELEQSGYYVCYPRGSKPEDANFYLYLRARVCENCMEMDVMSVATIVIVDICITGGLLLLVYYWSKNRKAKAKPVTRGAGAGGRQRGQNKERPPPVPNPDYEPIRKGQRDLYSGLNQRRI

B1: BC3B110 (bispecific antibody, human IgG1, kappa, L234A L235A)
chain: QVQLVQSGAEVKKPGSSVKVSCKASGYTFTRSTMHWVKQAPGQGLEWMGYINPSSAYTNYNQKFQGRVTLTADKSTSTAYMELSSLRSEDTAVYYCASPQVHYDYSGFPYWGQGTLVTVSSGGSEGKSSGSGSESKSTGGSEIVLTQSPATLSASPGERVTLSCSASSSVSYMNWYQQKPGQAPRRLIYDSSKLASGVPARFSGSGSGRDYTLTISSLEPEDFAVYYCQQWSRNPPTFGGGTKVEIKEPKSSDKTHTCPPCPAPEAAGGPSVFLFPPKPKDTLMISRTPEVTCVVVSVSHEDPEVKFNWYVDGVEVHNAKTKPREEQYNSTYRVVSVLTVLHQDWLNGKEYKCKVSNKALPAPIEKTISKAKGQPREPQVYVYPPSREEMTKNQVSLTCLVKGFYPSDIAVEWESNGQPENNYKTTPPVLDSDGSFALVSKLTVDKSRWQQGNVFSCSVMHEALHNHYTQKSLSLSPG
heavy: not shown
light: EIVLTQSPGTLSLSPGERATLSCRASQSISSSFLTWYQQKPGQAPRLLIYGASSRATGIPDRFSGGGSGTDFTLTISRLEPEDFAVYYCQHYGSSPMYTFGQGTKLEIKRTVAAPSVFIFPPSDEQLKSGTASVVCLLNNFYPREAKVQWKVDNALQSGNSQESVTEQDSKDSTYSLSSTLTLSKADYEKHKVYACEVTHQGLSSPVTKSFNRGEC
notes: IgG1 BCMAxCD3; HC1: CD3B2051-N106S HL scFv-Fc; also called BC3B110.001; B2051 HL NtoS
As for B1, the “EC50, Cytotoxicity” value in experiment [1] amounted to 781 pM. Besides, the EC50 in experiment [2] came to 31.2 nM. Moreover, the “H929 Killing EC50” value in experiment [3] came to 780 pM.

B2: BC3B115 (bispecific antibody, human IgG1, kappa, L234A L235A)
chain: B1 chain with K38R, N61A, L187W
heavy: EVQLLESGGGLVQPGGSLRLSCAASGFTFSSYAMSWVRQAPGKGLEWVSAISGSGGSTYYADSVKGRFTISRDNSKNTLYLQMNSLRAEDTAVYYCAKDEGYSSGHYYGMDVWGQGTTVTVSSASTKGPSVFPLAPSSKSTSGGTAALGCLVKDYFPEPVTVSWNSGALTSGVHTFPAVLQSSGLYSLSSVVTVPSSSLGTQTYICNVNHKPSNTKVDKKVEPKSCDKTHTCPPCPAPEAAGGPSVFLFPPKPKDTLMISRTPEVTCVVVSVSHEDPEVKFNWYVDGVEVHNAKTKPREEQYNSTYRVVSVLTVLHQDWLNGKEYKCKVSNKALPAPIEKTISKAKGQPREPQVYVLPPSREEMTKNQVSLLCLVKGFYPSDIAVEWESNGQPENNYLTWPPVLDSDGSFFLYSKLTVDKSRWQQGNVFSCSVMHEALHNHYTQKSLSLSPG
light: B1 light
notes: IgG1 BCMAxCD3; HC1: CD3B2089-N106S HL scFv-Fc; also called BC3B115.001; B2089 HL NtoS
Turning to B2, the “EC50, Cytotoxicity” value in experiment [1] came to 155 pM. In experiment [2], this molecule gave an EC50 of 24 nM. Moreover, the “H929 Killing EC50” value in experiment [3] came out at 155 pM.

B3: BC3B121 (bispecific antibody, human IgG1, kappa, L234A L235A)
chain: EIVLTQSPATLSASPGERVTLSCSASSSVSYMNWYQQKPGQAPRRLIYDSSKLASGVPARFSGSGSGRDYTLTISSLEPEDFAVYYCQQWSRNPPTFGGGTKVEIKGGSEGKSSGSGSESKSTGGSQVQLVQSGAEVKKPGSSVKVSCKASGYTFTRSTMHWVKQAPGQGLEWMGYINPSSAYTNYNQKFQGRVTLTADKSTSTAYMELSSLRSEDTAVYYCASPQVHYDYAGFPYWGQGTLVTVSSEPKSSDKTHTCPPCPAPEAAGGPSVFLFPPKPKDTLMISRTPEVTCVVVSVSHEDPEVKFNWYVDGVEVHNAKTKPREEQYNSTYRVVSVLTVLHQDWLNGKEYKCKVSNKALPAPIEKTISKAKGQPREPQVYVYPPSREEMTKNQVSLTCLVKGFYPSDIAVEWESNGQPENNYKTTPPVLDSDGSFALVSKLTVDKSRWQQGNVFSCSVMHEALHNHYTQKSLSLSPG
heavy: not shown
light: B1 light
notes: IgG1 BCMAxCD3; HC1: CD3B2051-N106A LH scFv-Fc; also called BC3B121.001; B2051 LH NtoA
Regarding B3, the “EC50, Cytotoxicity” value in experiment [1] was 100 pM. Also, the EC50 in experiment [2] came out at 73.3 nM. Moreover, the “H929 Killing EC50” value in experiment [3] came out at 100 pM.

B4: BC3B117 (bispecific antibody, human IgG1, kappa, L234A L235A)
chain: B3 chain with L46W, M174I
heavy: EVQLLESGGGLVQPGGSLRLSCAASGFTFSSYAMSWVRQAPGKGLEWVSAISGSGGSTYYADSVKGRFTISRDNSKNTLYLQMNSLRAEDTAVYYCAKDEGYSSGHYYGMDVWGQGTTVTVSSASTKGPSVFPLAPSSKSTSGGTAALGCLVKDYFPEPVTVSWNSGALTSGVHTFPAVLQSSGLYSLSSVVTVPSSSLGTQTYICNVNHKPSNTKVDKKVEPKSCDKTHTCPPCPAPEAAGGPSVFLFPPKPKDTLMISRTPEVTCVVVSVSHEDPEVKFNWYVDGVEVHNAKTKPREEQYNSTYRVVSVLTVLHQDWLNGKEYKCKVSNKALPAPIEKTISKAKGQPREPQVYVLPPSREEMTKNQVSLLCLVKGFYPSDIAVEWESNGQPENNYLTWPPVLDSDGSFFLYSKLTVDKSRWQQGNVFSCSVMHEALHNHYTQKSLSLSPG
light: B1 light
notes: IgG1 BCMAxCD3; HC1: CD3B2030-N106A LH scFv-Fc; also called BC3B117.001; B2030 LH NtoA
As to B4, in experiment [1], the “EC50, Cytotoxicity” value stood at 149 pM. The molecule further gave an EC50 in experiment [2] of 60.9 nM. In addition, the “H929 Killing EC50” value in experiment [3] worked out at 149 pM.

B5: BC3B126 (bispecific antibody, human IgG1, kappa, L234A L235A)
chain: B3 chain with L46W, K164R, N187A
heavy: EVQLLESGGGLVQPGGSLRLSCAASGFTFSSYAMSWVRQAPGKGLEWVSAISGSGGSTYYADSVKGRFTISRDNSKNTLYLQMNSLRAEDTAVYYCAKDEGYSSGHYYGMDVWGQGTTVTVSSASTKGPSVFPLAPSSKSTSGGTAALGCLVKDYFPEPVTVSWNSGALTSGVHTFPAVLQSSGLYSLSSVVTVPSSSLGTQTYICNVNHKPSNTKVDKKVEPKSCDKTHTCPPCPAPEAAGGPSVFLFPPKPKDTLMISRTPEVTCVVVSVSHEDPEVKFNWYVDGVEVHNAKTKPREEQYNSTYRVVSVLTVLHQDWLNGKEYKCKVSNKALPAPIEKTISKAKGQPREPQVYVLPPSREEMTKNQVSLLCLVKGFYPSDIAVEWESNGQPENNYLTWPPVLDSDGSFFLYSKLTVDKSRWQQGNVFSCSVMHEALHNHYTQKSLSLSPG
light: B1 light
notes: IgG1 BCMAxCD3; HC1: CD3B2089-N106A LH scFv-Fc; also called BC3B126.001; B2089 LH NtoA
For the molecule B5, the “EC50, Cytotoxicity” value in experiment [1] is 182 pM. This molecule also showed an EC50 in experiment [2] of 177 nM. In addition, the “H929 Killing EC50” value in experiment [3] amounted to 182 pM.

B6: BC3B127 (bispecific antibody, human IgG1, kappa, L234A L235A)
chain: B3 chain with L46W, K164R, N187A, A232G
heavy: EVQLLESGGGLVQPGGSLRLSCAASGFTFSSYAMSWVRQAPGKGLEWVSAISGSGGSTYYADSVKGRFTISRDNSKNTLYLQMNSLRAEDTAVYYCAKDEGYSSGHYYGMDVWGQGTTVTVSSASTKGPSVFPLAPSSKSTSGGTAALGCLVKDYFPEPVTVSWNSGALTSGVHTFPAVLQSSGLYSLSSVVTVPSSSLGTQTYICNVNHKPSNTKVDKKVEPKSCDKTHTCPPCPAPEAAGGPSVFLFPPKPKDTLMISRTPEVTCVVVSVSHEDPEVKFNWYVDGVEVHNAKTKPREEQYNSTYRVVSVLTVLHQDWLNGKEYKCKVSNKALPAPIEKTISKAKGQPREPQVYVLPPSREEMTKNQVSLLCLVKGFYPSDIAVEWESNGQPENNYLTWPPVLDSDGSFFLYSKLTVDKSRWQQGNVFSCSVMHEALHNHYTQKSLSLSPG
light: B1 light
notes: IgG1 BCMAxCD3; HC1: CD3B2089-N106G LH scFv-Fc; also called BC3B127.001; B2089 LH NtoG
Regarding B6, in experiment [1], the “EC50, Cytotoxicity” value worked out at 806 pM. This molecule showed a half-maximal effective concentration (EC50) in experiment [2] of 300 nM. Moreover, the “H929 Killing EC50” value in experiment [3] amounted to 806 pM.

B7: BC3B53 (bispecific antibody, human IgG1, kappa, L234A L235A)
chain: B3 chain with L46W, M174I, A232Q
heavy: not shown
light: B1 light
notes: IgG1 BCMAxCD3; HC1: CD3B2030-N106Q LH scFv-Fc; also called BC3B53.001; B2030 LH NtoQ
B7: the “EC50, Cytotoxicity” value in experiment [1] amounted to 27.8 pM. Also, the response in experiment [2] was half-maximal at 19.6 nM (EC50). Moreover, in experiment [3], the “H929 Killing EC50” value was 27.8 pM.

B8: BC3B123 (bispecific antibody, human IgG1, kappa, L234A L235A)
chain: B3 chain with A232Q
heavy: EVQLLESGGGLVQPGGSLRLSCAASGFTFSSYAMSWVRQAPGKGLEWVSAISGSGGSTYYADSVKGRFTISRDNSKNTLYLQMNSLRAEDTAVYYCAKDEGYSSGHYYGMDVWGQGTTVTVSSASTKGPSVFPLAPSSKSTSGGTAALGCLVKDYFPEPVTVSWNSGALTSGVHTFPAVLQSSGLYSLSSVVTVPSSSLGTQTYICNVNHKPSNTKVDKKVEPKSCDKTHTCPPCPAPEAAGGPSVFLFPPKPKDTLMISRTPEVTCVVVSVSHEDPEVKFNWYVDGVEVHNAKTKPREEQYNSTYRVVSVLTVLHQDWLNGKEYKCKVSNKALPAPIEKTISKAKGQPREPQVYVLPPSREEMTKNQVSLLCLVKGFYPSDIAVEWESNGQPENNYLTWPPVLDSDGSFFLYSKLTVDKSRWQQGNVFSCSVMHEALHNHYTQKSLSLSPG
light: B1 light
notes: IgG1 BCMAxCD3; HC1: CD3B2051-N106Q LH scFv-Fc; also called BC3B123.001; B2051 LH NtoQ
As to B8, in experiment [1], the “EC50, Cytotoxicity” value was determined as 69 pM. The molecule further displayed a concentration giving a half-maximal response (EC50) in experiment [2] of 65 nM. The “H929 Killing EC50” value in experiment [3] was 69 pM.

B9: BC3B118 (bispecific antibody, human IgG1, kappa, L234A L235A)
chain: B3 chain with L46W, M174I, A232G
heavy: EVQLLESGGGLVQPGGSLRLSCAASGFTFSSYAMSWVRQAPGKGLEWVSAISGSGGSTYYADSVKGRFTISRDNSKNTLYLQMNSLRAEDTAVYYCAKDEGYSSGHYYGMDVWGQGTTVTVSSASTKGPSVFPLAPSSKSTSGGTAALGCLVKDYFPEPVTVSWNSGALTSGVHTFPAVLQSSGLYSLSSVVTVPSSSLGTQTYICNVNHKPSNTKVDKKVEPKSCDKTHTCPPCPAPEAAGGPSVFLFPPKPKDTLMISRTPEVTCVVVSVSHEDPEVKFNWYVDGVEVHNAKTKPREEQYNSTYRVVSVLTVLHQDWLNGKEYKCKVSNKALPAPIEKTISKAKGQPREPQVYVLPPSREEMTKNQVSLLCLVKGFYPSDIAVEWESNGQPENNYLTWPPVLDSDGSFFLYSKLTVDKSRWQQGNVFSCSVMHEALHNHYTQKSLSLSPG
light: B1 light
notes: IgG1 BCMAxCD3; HC1: CD3B2030-N106G LH scFv-Fc; also called BC3B118.001; B2030 LH NtoG
Take B9: the “EC50, Cytotoxicity” value in experiment [1] is 745 pM. In experiment [2], the EC50 came to 257 nM. In addition, the “H929 Killing EC50” value in experiment [3] worked out at 745 pM.

B10: BC3B128 (bispecific antibody, human IgG1, kappa, L234A L235A)
chain: B3 chain with L46W, K164R, N187A, A232Q
heavy: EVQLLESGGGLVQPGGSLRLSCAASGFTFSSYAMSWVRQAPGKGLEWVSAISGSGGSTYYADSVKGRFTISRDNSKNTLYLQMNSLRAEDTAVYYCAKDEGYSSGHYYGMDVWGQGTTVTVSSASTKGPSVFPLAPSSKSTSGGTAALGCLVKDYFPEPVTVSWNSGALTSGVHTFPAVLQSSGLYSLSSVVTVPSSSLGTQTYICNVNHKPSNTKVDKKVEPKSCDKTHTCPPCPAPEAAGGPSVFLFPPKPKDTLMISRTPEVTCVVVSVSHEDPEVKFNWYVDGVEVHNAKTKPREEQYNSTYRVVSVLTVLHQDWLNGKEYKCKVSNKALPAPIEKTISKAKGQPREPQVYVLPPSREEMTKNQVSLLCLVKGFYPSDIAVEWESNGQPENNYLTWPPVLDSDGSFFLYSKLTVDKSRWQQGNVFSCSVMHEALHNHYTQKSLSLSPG
light: B1 light
notes: IgG1 BCMAxCD3; HC1: CD3B2089-N106Q LH scFv-Fc; also called BC3B128.001; B2089 LH NtoQ
In the case of B10, in experiment [1], the “EC50, Cytotoxicity” value stood at 35.4 pM. In experiment [2], this molecule returned a 50% effective concentration (EC50) of 42.9 nM. Moreover, the “H929 Killing EC50” value in experiment [3] was 35.4 pM.

B11: BC3B122 (bispecific antibody, human IgG1, kappa, L234A L235A)
chain: B3 chain with A232G
heavy: not shown
light: B1 light
notes: IgG1 BCMAxCD3; HC1: CD3B2051-N106G LH scFv-Fc; also called BC3B122.001; B2051 LH NtoG
For the molecule B11, the “EC50, Cytotoxicity” value in experiment [1] was determined as 4360 pM. A half-maximal effect in experiment [2] (EC50) was put at 300 nM. The “H929 Killing EC50” value in experiment [3] turned out to be 4360 pM.

B12: BC3B119 (bispecific antibody, human IgG1, kappa, L234A L235A)
chain: B3 chain with L46W, M174I, A232S
heavy: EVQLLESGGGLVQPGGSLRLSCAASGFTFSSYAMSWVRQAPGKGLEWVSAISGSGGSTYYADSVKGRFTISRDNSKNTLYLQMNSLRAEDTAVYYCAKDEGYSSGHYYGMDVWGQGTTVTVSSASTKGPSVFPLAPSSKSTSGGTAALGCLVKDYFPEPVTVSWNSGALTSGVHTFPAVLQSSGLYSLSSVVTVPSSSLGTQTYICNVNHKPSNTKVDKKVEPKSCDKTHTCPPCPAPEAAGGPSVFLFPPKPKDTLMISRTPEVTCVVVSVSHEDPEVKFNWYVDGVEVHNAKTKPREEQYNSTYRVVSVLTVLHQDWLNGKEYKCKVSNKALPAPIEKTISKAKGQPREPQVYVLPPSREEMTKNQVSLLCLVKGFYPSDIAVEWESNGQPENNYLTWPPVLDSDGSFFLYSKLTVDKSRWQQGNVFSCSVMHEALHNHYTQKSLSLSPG
light: B1 light
notes: IgG1 BCMAxCD3; HC1: CD3B2030-N106S LH scFv-Fc; also called BC3B119.001; B2030 LH NtoS
For B12, the “EC50, Cytotoxicity” value in experiment [1] is 10000 pM. Moreover, the midpoint of the response in experiment [2], the EC50, lay at 300 nM. The “H929 Killing EC50” value in experiment [3] worked out at 10000 pM.

B13: BC3B113 (bispecific antibody, human IgG1, kappa, L234A L235A)
chain: B1 chain with K38R, N61A, S106G, L187W
heavy: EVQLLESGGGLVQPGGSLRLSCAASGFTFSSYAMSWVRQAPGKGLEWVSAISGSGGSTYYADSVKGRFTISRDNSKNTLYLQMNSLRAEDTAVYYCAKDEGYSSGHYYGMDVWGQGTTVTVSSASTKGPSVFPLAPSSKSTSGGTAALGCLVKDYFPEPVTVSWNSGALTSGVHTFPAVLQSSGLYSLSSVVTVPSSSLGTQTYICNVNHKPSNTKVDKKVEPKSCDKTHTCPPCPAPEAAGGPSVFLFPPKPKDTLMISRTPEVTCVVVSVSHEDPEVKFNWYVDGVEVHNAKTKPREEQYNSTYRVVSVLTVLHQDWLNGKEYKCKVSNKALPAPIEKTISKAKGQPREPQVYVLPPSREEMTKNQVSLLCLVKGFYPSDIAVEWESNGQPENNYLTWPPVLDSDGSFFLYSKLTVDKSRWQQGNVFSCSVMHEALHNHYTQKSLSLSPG
light: B1 light
notes: IgG1 BCMAxCD3; HC1: CD3B2089-N106G HL scFv-Fc; also called BC3B113.001; B2089 HL NtoG
On to B13, for which, in experiment [1], the “EC50, Cytotoxicity” value is 44.3 pM. Further, in experiment [2], the EC50 came to 11.1 nM. Further, in experiment [3], the “H929 Killing EC50” value stood at 44.3 pM.

B14: BC3B114 (bispecific antibody, human IgG1, kappa, L234A L235A)
chain: B1 chain with K38R, N61A, S106Q, L187W
heavy: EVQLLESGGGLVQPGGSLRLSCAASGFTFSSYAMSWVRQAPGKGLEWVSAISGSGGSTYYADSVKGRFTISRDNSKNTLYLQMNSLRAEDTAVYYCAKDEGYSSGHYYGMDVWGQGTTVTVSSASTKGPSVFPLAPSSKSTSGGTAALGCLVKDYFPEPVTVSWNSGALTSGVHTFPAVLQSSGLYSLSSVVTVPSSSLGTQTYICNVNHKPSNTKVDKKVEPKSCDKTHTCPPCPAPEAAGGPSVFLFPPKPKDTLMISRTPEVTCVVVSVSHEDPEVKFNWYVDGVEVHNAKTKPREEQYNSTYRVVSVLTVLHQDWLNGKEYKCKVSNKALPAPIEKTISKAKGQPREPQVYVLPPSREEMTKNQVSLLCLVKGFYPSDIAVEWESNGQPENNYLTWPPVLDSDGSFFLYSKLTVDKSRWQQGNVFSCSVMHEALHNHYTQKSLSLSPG
light: B1 light
notes: IgG1 BCMAxCD3; HC1: CD3B2089-N106Q HL scFv-Fc; also called BC3B114.001; B2089 HL NtoQ
As for B14, in experiment [1], the “EC50, Cytotoxicity” value turned out to be 12.5 pM. In experiment [2], this molecule yielded an EC50 of 3.2 nM. Besides, the “H929 Killing EC50” value in experiment [3] was 12.6 pM.

Usually EC50 stands for the concentration giving half of the maximal effect. Read a high EC50 as lower potency in that assay.
